Measured values from the nanobody polyreactivity screen of Harvey et al. (2022).

Experiment: yeast display, Sf9 membrane polyspecificity reagent, FACS + sequencing; frameworks hold sequencing errors
Summary of the method: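 Nanobodies from a synthetic yeast display library (Saccharomyces cerevisiae BJ5465), induced 36–48 hours with galactose, were stained 1 hour at 4 °C with 10% biotinylated, detergent-solubilized Sf9 membrane reagent, enriched on streptavidin microbeads, then FACS-sorted. Anti-HA (expression) and streptavidin (reagent binding) fluorescence set low and high (top ~1%) gates. Polyreactivity labels come from the gate of origin. Genes were colony-PCR amplified, MiSeq 2 × 250 sequenced and filtered by CDR length.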

Sequence	polyreactivity (PSR sort gate)
QVQLVESGGGLVQAGGSLRLSCAASGRIFRGNVMGWYRQAPGTERELVAAISGSGGSTYYADSVKGRFTISRDNAKNTVYLQMNSLKPEDTAVYYCAAGTAKTPRRSVGYWGQGTQVTVSS	high polyreactivity
QVQLVESGGGLVQAGGSLRLSCAASGRIFRGYAMGWYRQAPGKERELVAAISQSGSSTYYADSVKGRFTISRDNAKNTVYLQMNSLKPEDTAVYYCAVKYLKHFGYWGQGTQVTVSS	high polyreactivity
QVQLVESGGGLVQAGGSLRLSCAASGRIFRGYAMGWYRQAPGKERELVAAISRGGNTDYADSVKGRFTISRDNAKNTVYLQMNSLKPEDTAVYYCAVGYVSYRKFYLYNSWGQGTQVTVSS	high polyreactivity
QVQLVESGGGLVQAGGSLRLSCAASGRIFRGYAMGWYRQAPGKERELVADISSGASTNYADSVKGRFTISRDNAKKTVYFQMNSLKPEDTAVYYCAAQHSVLAYFEDDYWGQGTQVTVSS	low polyreactivity
QVQLVESGGGLVQAGGSLRLSCAASGRIFRGYAMGWYRQAPGKERELVADISSGASTNYADSVKGRFTISRDNAKNTVYFQMNSLKPEDTAVYYCAAQHSVLAYFEYDYWGQGTQVTVSS	low polyreactivity
QVQLVESGGGLVQAGGSLRLSCAASGRIFRGYAMGWYRQAPGTERELVAAITRGGSTKYADSVKGRFTISRDNAKNTVYLQMNSLKPEDTAVYYCAKDSYPYVPLYRSRSLYGYWGQGTQVTVSS	high polyreactivity
QVQLVESGGGLVQAGGSLRLSCAASGRIFRHYGMGWYRQAPGKERELVARITRSGGSTYYADSVKGRFTISRDNAKNTVYLQMTSLKPEDTAVYYCAAFTYGESWYDYWGQGTQVTVSS	low polyreactivity
QVQLVESGGGLVQAGGSLRLSCAASGRIFRIYAMGWYRQAPGKERELVARITYSGGSTYYADSVKGRFTISRDNAKNTVYLQMNSLKPEDTAVYFCAADWLGYQYGYWGQGTQVTVSS	low polyreactivity
QVQLVESGGGLVQAGGSLRLSCAASGRIFRIYTMGWYRQAPGKERELVAAITKSGGSTSYADSVKGRFTISRDNAKNTVYLQMNILKPEDTAVYYCNAKGWTRPPGYDYWGQGTQVTVSS	high polyreactivity
QVQLVESGGGLVQAGGSLRLSCAASGRIFRIYTMVWYRQAPGKERELVAVINSSGGRTYYADSVKGRFTISRDNAQNTVYLQMNSLKPEDTAVYYCNAVFGGGTMDYWGQGTQVTVSS	high polyreactivity
QVQLVESGGGLVQAGGSLRLSCAASGRIFRKYAMGWSRQAPGKEREFVAAISSSGGITYYADSVKGRFTISRDNAKNTVYLQMNSLKPEDTAVYYCADLYPQHRYDYWGQGTQVTVSS	high polyreactivity
QVQLVESGGGLVQAGGSLRLSCAASGRIFRKYAMGWYIQAPGKEREFVASIRSRGDSTYYADSVKGRFTISRDNAKNTVYLQMNSMKPEDTAVYYCAAVSGSGYDYWGQGTQVTVSS	high polyreactivity
QVQLVESGGGLVQAGGSLRLSCAASGRIFRLYAMGWSRQAPGKERELVAAISSSGGDTYYADSVKGRFTISRDNAKNTVYLQMNSLKPEDTAVYYCNARKRYANVHYNYWGQGTQVTVSS	high polyreactivity
QVQLVESGGGLVQAGGSLRLSCAASGRIFRLYTMGWYRPAPGKERELVAAISGSGGRTYYADSVKGRFTISRDNAKNTVYLQMNSLKPEDTAVYYCAKVGYKSPYLYSQHYTGFGYWGQGTQVTVSS	high polyreactivity
QVQLVESGGGLVQAGGSLRLSCAASGRIFRPNAMGWYRQAPGKERELVAAITSNGGRTYYADSVKGRFTISRDNAKNTVYLQMNSLKPEDTAVYYCNAAPFRSGYGYWGQGTQVTVSS	high polyreactivity
QVQLVESGGGLVQAGGSLRLSCAASGRIFRPYAMGWYRQAPGKERELVAAISVSGVITYYADSVKGRFTISRDNAKNTVYLQMNSLKPEDTAVYYCARRSSTRYFYGWYDYWGQGTQVTVSS	low polyreactivity
QVQLVESGGGLVQAGGSLRLSCAASGRIFRPYAMGWYRQAPGKERELVASISWRGSSTYYADSVKGRFTISRDNAKNTVYLQMNSLKPEDTAVYYCAARRYPTSGYAYWGQGTQVTVSS	high polyreactivity
